# Measured values taken from patent US20020034726A1, “Eosinophil chemotactic factor” (priority 1998, published 2002).
# “Also recorded” adds a separate entry of the source.
# Assays:
# Assay type in all cases: cell-based
# [1] = test system: monocytes; assay: monocyte chemotaxis test; conditions: membrane pore size 8 μm, PBS negative control, MCP-1 positive control, FIG. 8
# Experimental: (§1) The eosinophil chemotaxis was measured by following the method described in the reference (Lymphokine Cytokine Res. 10, 481-486, 1991; Lymphokine Cytokine Res. 11, 331-338, 1992). Specifically, eosinophils of CD16- were purified from the peripheral blood of normal volunteers by discontinuous density-gradient method using Percoll (Pharmacia, Picataway, N.J.), and the following anti-CD16 immunoglobulin (DAKO. A. S, Glostrup, Denmark) magnetic antibody treatment. Purity of the obtained eosinophils was 97% or higher, and living cells were 95%. Chemotaxis was measured using a bilayered 48-well plate (NeuroProbe, Cabin John, Md.) mediated through a polyvinylpyrrolidone-free membrane (a standard pore size of 5 micron). Chemotactic factors in various concentration, and 0.5×10^6 to 1×10^6 cells/ml human eosinophils were placed on the lower and upper layers, respectively, and incubated under 5% carbon dioxide at 37° C. for 1 to 2 hours. Then the membrane separating two plates was removed, and eosinophils were stained by placing them in DiffQuick stain (Baxter Health Care, McGaw Park, Ill.) to count the eosinophils which were passing through the membrane under a microscope. All assays were conducted three times.
# (§2) The similar experiments were conducted in regard to lymphocytes (FIG. 7) and monocytes (FIG. 8). Pore sizes of the membranes are 3 and 8 μm, respectively. […]
# [2] = test system: human eosinophils; assay: eosinophil chemotaxis (ECA) test, bilayered 48-well chamber
# Experimental: as §1
# As a positive control, human C5a (Sigma, Saint Louis, Mo.), IL-5 (Genzyme, Cambridge, Mass.), RANTES (Genzyme), and eotaxin-1 (Seikagaku-Kogyo, Tokyo) were used. […]
# [3] = test system: neutrophils; assay: neutrophil chemotaxis test; conditions: PBS negative control, IL-8 positive control; FIG. 6
# [4] = test system: lymphocytes; assay: lymphocyte chemotaxis test; conditions: membrane pore size 3 μm; PBS negative control, lymphotactin positive control; FIG. 7
# Experimental: as §1, §2
molecule,measurement,setting,value
"ecalectin: eosinophil-specific chemotactic factor, 323 amino acid protein of SEQ ID NO: 2, similar to galectin-9; recombinant from Sf9 insect cells (protein, listed as Homo sapiens) MAFSSSQAPYLSPAVPFSGTIQGGLQDGLQITVNGTVLSSSGTRFAVNFQTGFSGNDIAFHFNPRFEDGGYVVCNTRQNGSWGPEERKTHMPFQKGMPFDLCFLVQSSDFKVMVNGILFVQYFHRVPFHRVDTISVNGSVQLSYISFQPPGVWPANPAPITQTVIHTVQSAPGQMFSTPAIPPMMYPHPAYPMPFITTILGGLYPSKSILLSGTVLPSAQRFHINLCSGNHIAFHLNPRFDENAVVRNTQIDNSWGSEERSLPRKMPFVRGQSFSVWILCEAHCLKVAVDGQHLFEYYHRLRNLPTINRLEVGGDIQLTHVQT",monocyte chemotactic activity,[1],no chemotactic activity; also recorded: low or absent
same,monocyte chemotactic activity,[1]; listed as recombinant ecalectin,does not cause monocyte chemotaxis
same,specificity of chemotactic activity,"[2]; eosinophils versus neutrophils, lymphocytes, monocytes, FIGS. 5-8",specific to eosinophils
same,eosinophil chemotactic activity,"[2]; recombinant ecalectin purified from Sf9 insect cells, stained eosinophils passing through 5 micron membrane, FIG. 5",strong eosinophil chemotactic activity concentration-dependently; also recorded: concentration-dependent eosinophil chemotactic activity
same,neutrophil chemotactic activity,[3],no or little neutrophil chemotactic activity; also recorded: low or absent; also recorded: does not cause neutrophil chemotaxis
same,lymphocyte chemotactic activity,[4],no chemotactic activity; also recorded: low or absent; also recorded: does not cause lymphocyte chemotaxis
